Measurements: US8574882B2, “Thermostable 1,5-anhydroglucitol dehydrogenase, and method for measurement of 1,5-anhydroglucitol by using the same” (Nippon Kayaku Kabushiki Kaisha, priority 2008, dated 2013)

B1: Ver. 1.0: thermostable 1,5-AG dehydrogenase, protein 21) of b101; net vs SEQ ID NO: 4: P50Q (protein)
chain: MEFGGQPDIVIIGSGIGGASIAAGLSASGADILILEAGESLPDRPENRDQHAIFQRGFFRPKEFWYETDGTPFNPGNYYNVGGNSKFYGAVLVRYRREDFEELAHLEGVSPAWPFAYDELEPWYCKAEELFQVRGELGDDPTEPYHSKPYSYPAIRDESPIADLRARLKKAGLHPASLPLGVDIERWLAKAKTPWDAHPNSNDGKMDAETCPLALALKHPNVGLETSARVTKLETGPDGKTIVAVHYVKNGEALVLRPKLVILSAGAVQSAALLLRSGLANRSDQVGRNFMNHNASAVIGFDPRYRNDSVYQKTFGFNDYYLSDGAGGPPLGNVQLLGRVSGAILKSNMRQVPEWFLNRIAGHTIDFYAMSEDLPSPESRVSVDGDRIILHWVRSNWKAHLMLVDKLKSALRAAGFPVVLSRAFDRRTPSHQCGTVRIGDNPATAPLDPYCRAYDHPNLYVVDASFLPTSAAVNPALTIAAQALRVADHLNREVLA
modifications: Pseudomonas sp. NK-85001

Tests used:
[1] = test system: 1,5-AG dehydrogenase (Ver. 0); test: Substrate specificity of parent strain-derived 1,5-AG dehydrogenase; type: biochemical, Pseudomonas sp. NK-85001; settings: activity for 1,5-AG as 100%; Ver. 0, 40%-saturated ammonium sulfate precipitate fraction
Procedure: (§1) The components other than the crude enzyme solution are mixed and kept at 37° C. for 10 minutes. Then, the crude enzyme solution is added to the reaction solution to initiate reaction. Decrease in absorbance at 600 nm for 1 minute with the temperature kept at 37° C. is determined.
A precipitate fraction of 40%-saturated ammonium sulfate was collected by centrifugation and dissolved in a 50 mM sodium phosphate buffer, pH 7.5.

[2] = 1,5-AG dehydrogenase activity determination of crude enzyme solution (L-sorbose, DCIP, 1-m-PMS, decrease in absorbance at 600 nm); type: biochemical; settings: crude enzyme solution, L-sorbose as substrate, 37° C.
Procedure: The E. coli JM109 strains transformed with the pTrc-PS15DH vectors confirmed in the paragraph (I) to have the insert fragment were inoculated to 3 mL of an LB medium containing 100 μg/mL ampicillin and cultured at 28° C. for 14 hours. Of this culture solution, a 0.2 mL aliquot was inoculated to 10 mL of an LB medium (containing 100 μg/mL ampicillin). Approximately 3 hours later, the rise of OD600 of the culture solution to 0.4 to 0.7 was confirmed, and 1,5-AG dehydrogenase expression in E. coli was then induced by the addition of 0.1 M IPTG (final concentration: 0.1 mM) to the medium. This culture solution was further cultured overnight at 28° C. and centrifuged at 10000×g for 5 minutes to precipitate cells. The supernatant was removed, and the pellet was then washed twice with a 0.85% aqueous NaCl solution. Cells were precipitated by centrifugation. Then, the microbial cells were suspended in 1 mL of a 50 mM sodium phosphate buffer, pH 7.5. Triton X-100 was added thereto at a concentration of 0.25%, and the microbial cells were disrupted using a bead impact-type cell disrupter MINI-BEAD BEATER (30 seconds×4, manufactured by Central Scientific Commerce, Inc.) while cooled in ice. After centrifugation at 20000×g for 10 minutes, the supernatant was examined as a crude enzyme solution for its 1,5-AG dehydrogenase activity. The composition of the reaction solution is as described below. Since the 1,5-AG dehydrogenase also reacts with L-sorbose as its substrate, L-sorbose was used for convenience instead of 1,5-AG in the enzymatic activity determination.
Composition of Reaction Solution:
as §1
The enzymatic activity can be determined according to the following equation: Enzymatic activity (U/mL)=(Δ600/min×0.6 (mL)×dilution ratio of crude enzyme solution)/(16.3×0.01 (mL)).
(§2) The E. coli JM109 containing the gene encoding each thermostable 1,5-AG dehydrogenase obtained in the paragraphs to [4] of EXAMPLE 2 was transplanted to 10 mL of an LB liquid medium containing 50 μg/mL ampicillin and 0.1 mM IPTG and shake-cultured at 30° C. for 16 hours. 10 mL of the shake-culture solution was centrifuged at 10000 rpm for 5 minutes. The culture supernatant was removed, and the pellet was then washed twice with a 0.85% aqueous NaCl solution. These microbial cells were suspended in 1 mL of a 50 mM sodium phosphate buffer (pH 7.5) containing 0.25% Triton X-100. The microbial cells were disrupted using a bead impact-type cell disrupter MINI-BEAD BEATER (30 seconds×4, manufactured by Central Scientific Commerce, Inc.) while cooled in ice. After centrifugation at 15000 rpm for 10 minutes, the supernatant was used as a crude enzyme solution. When the crude enzyme solution was heat-treated, the treatment was performed for 10 minutes in a water bath of 45° C., 50° C., 55° C. or 60° C.
(§3) The enzymatic activity of the 1,5-AG dehydrogenase was calculated by measurement by the same approach as that described in the paragraph (J) of EXAMPLE 1.
(§4) A specific activity that represents the enzymatic activity of the 1,5-AG dehydrogenase per mg of the crude enzyme solution was calculated according to the following equation: Specific activity (U/mg)=enzymatic activity (U/mL)/protein concentration of crude enzyme solution (mg/mL). Moreover, the rate of residual activity was calculated according to the following equation: Rate of residual activity (%)=(specific activity of crude enzyme solution after heat treatment/specific activity of crude enzyme solution before heat treatment)×100.
The 1,5-AG dehydrogenase activity was determined based on the method described in EXAMPLE 1, and its specific activity was determined according to the equation described in EXAMPLE 3.

[3] = Stability of thermostable 1,5-AG dehydrogenase at heat treatment temperature (rate of residual activity); type: physicochemical; settings: crude enzyme solution, water bath 45° C., 10 minutes
Procedure: as §2, §3, §4

[4] = Primary screening of variant gene library after heat treatment of microbial cells (DCIP decolorization with 1,5-AG); type: biochemical; settings: microbial cells treated at 60° C. for 20 minutes; blue color of DCIP decolorized
Procedure: Approximately 10100 colonies of the variant gene library were randomly picked up using a colony picker (PM-2s, manufactured by Microtec Co., Ltd.) and subjected to primary screening In the primary screening, a 1.2-mL 96-well square deep well plate (manufactured by NALGE NUNC INTERNATIONAL MK.) was used. The colonies were transplanted to 500 μL of an LB liquid medium containing 50 μg/mL ampicillin and cultured (28° C., 900 rpm) overnight in a 96-well square plate shaker (TITRAMAX 100, manufactured by HEIDOLPH). The 96-well square deep well plate was centrifuged at 2000 rpm for 10 minutes to separate microbial cells, which were then treated at −80° C. for 1 hour. The microbial cells were thawed and then treated at 60° C. for 20 minutes. Active variant enzymes were picked up by suspending the microbial cells thus treated at 60° C. by the addition of 200 μL of a 0.1 M potassium phosphate buffer (pH 7.0) containing 0.5% Triton X-100, 30 μL of 6 mM 2,6-dichlorophenolindophenol (DCIP) and 5 μL of 50 mg/mL 1,5-AG. The blue color of DCIP is decolorized for colonies having the enzymatic activity. As a result, it was observed that the blue color of DCIP was decolorized for colonies carrying a 1,5-AG dehydrogenase Ver. […] 0.

Molecule | Relative activity [1] [%] | Specific activity [2] [U/mg] | Rate of residual activity after 10-minute treatment at 45° C. [3] [%] | Thermostability compared with 1,5-AG dehydrogenase Ver. 0 [4]
O=C[C@H](O)[C@@H](O)[C@H](O)CO [Xylose] | 0 | – | – | –
B1 | – | 1.7 | 8.3 | improved thermostability
